Experimental data: the Immune Epitope Database (IEDB)

What was measured:
Test in all cases: IEDB peptide-MHC binding, purified MHC/competitive/radioactivity; filed as Kd, often an IC50 or EC50 that approximates it; ≥ and ≤ were set here for values at or beyond the usual limits of such assays
HLA-A*02:03 = target: HLA-A*02:03
HLA-A*31:01 = target: HLA-A*31:01
HLA-A*11:01 = target: HLA-A*11:01
HLA-A*03:01 = target: HLA-A*03:01
HLA-A*68:01 = target: HLA-A*68:01
HLA-A*33:01 = target: HLA-A*33:01
[1] = source organism: Vaccinia virus WR
[2] = source organism: Mammarenavirus juninense
[3] = source organism: SARS coronavirus Tor2
[4] = source organism: Lassa virus Josiah
[5] = source organism: Mammarenavirus tacaribeense
[6] = source organism: Dengue virus 4 Philippines/H241/1956
[7] = source organism: Mammarenavirus guanaritoense
[8] = source organism: Vaccinia virus Copenhagen

Row | Sequence | Kd (HLA-A*31:01; [1]) [nM] | Kd (HLA-A*11:01; [1]) [nM] | Kd (HLA-A*03:01; [1]) [nM] | Kd (HLA-A*68:01; [1]) [nM] | Kd (HLA-A*33:01; [1]) [µM] | also measured
1 | KMFESTYRGA | – | – | – | – | – | Kd (HLA-A*02:03; source organism: Dengue virus 4 Dominica/814669/1981): 10.4 nM
2 | PVETLFGSY | ≥ 62300 | 2200 | ≥ 38900 | ≥ 33500 | ≥ 77.7 | –
3 | DAKNDDWKK | ≥ 36700 | 3100 | 8230 | 104 | 2.83 | –
4 | TQFNFNGHTY | 4060 | 965 | 218 | 266 | 16.1 | –
5 | STQSVLCVK | 115 | 0.756 | 149 | 3.14 | 15.6 | –
6 | MVGLFSNNPH | – | – | – | – | – | Kd (HLA-A*31:01; [2]): 106 nM; Kd (HLA-A*11:01; [2]): 5960 nM; Kd (HLA-A*03:01; [2]): ≥ 30200 nM; Kd (HLA-A*68:01; [2]): 50 nM; Kd (HLA-A*33:01; [2]): 0.398 µM
7 | NQVIVNNLDK | – | – | – | – | – | Kd (HLA-A*31:01; [3]): ≥ 40700 nM; Kd (HLA-A*11:01; [3]): 13300 nM; Kd (HLA-A*03:01; [3]): ≥ 28900 nM; Kd (HLA-A*68:01; [3]): 13400 nM; Kd (HLA-A*33:01; [3]): ≥ 70 µM
8 | FSLESDSIK | 960 | 565 | 1570 | 187 | 2.22 | –
9 | NILGGVLHTK | 1820 | 36.8 | 39 | 19.9 | 1.37 | –
10 | DTSNNIAEY | ≥ 35600 | ≥ 5000 | ≥ 78000 | 2.74 | 7.61 | –
11 | GVVRVWDVK | – | – | – | – | – | Kd (HLA-A*31:01; [4]): ≥ 45000 nM; Kd (HLA-A*11:01; [4]): 11.1 nM; Kd (HLA-A*03:01; [4]): 5790 nM; Kd (HLA-A*68:01; [4]): 129 nM; Kd (HLA-A*33:01; [4]): ≥ 24.2 µM
12 | FMECNLNELV | – | – | – | – | – | Kd (HLA-A*02:03; source organism: Homo sapiens): 70.2 nM
13 | PLFDFVNEKY | ≥ 26800 | ≥ 69800 | ≥ 70100 | ≥ 70200 | ≥ 70 | –
14 | TIPIGMQFDK | 17400 | 4.02 | 6040 | 38.1 | ≥ 70 | –
15 | SIKDVIHDY | 2260 | 2810 | 2830 | 3550 | 19.4 | –
16 | QYIHCFRKPH | – | – | – | – | – | Kd (HLA-A*31:01; [5]): 386 nM; Kd (HLA-A*11:01; [5]): ≥ 69700 nM; Kd (HLA-A*03:01; [5]): ≥ 70000 nM; Kd (HLA-A*68:01; [5]): ≥ 57300 nM; Kd (HLA-A*33:01; [5]): 0.14 µM
17 | LIASLVMLLV | – | – | – | – | – | Kd (HLA-A*02:03; [6]): 64.7 nM
18 | RVYANLGER | – | – | – | – | – | Kd (HLA-A*31:01; [3]): 6.3 nM; Kd (HLA-A*11:01; [3]): 126 nM; Kd (HLA-A*03:01; [3]): 18.6 nM; Kd (HLA-A*68:01; [3]): 601 nM; Kd (HLA-A*33:01; [3]): ≥ 45.4 µM
19 | YIFPGDKTSY | 18700 | 1260 | 258 | 40.7 | ≥ 70 | –

Row | Sequence | Kd (HLA-A*31:01; [1]) [nM] | Kd (HLA-A*11:01; [1]) [nM] | Kd (HLA-A*03:01; [1]) [nM] | Kd (HLA-A*68:01; [1]) [nM] | Kd (HLA-A*33:01; [1]) [µM] | also measured
20 | KIVNGVLSR | 1400 | 89.2 | 328 | 2050 | 7.03 | –
21 | PFKVINLPK | 6360 | 665 | 9490 | 15500 | ≥ 77.7 | –
22 | STYSDICSK | 80.2 | 0.706 | 23.6 | 2.06 | 0.988 | –
23 | VFAYVGCYNK | – | – | – | – | – | Kd (HLA-A*31:01; [3]): 184 nM; Kd (HLA-A*11:01; [3]): 350 nM; Kd (HLA-A*03:01; [3]): 1530 nM; Kd (HLA-A*68:01; [3]): 65.3 nM; Kd (HLA-A*33:01; [3]): 0.34 µM
24 | SLIGLTARA | – | – | – | – | – | Kd (HLA-A*02:03; source organism: Dengue virus 1 Brazil/97-11/1997): 4.13 nM
25 | AAAYFVGYLK | – | – | – | – | – | Kd (HLA-A*31:01; [3]): 282 nM; Kd (HLA-A*11:01; [3]): 0.439 nM; Kd (HLA-A*03:01; [3]): 9.39 nM; Kd (HLA-A*68:01; [3]): 1.08 nM; Kd (HLA-A*33:01; [3]): 5.61 µM
26 | SLGLILLKMV | – | – | – | – | – | Kd (HLA-A*02:03; [6]): 58.2 nM
27 | KTAVNMLTH | – | – | – | – | – | Kd (HLA-A*31:01; [7]): 45.3 nM; Kd (HLA-A*11:01; [7]): 216 nM; Kd (HLA-A*03:01; [7]): 10.1 nM; Kd (HLA-A*68:01; [7]): ≥ 44800 nM; Kd (HLA-A*33:01; [7]): ≥ 77.7 µM
28 | ILNAHEDGV | – | – | – | – | – | Kd (HLA-A*02:03; [6]): 93.2 nM
29 | WLSMTDEMR | 1790 | ≥ 46300 | ≥ 78000 | 34.4 | 6.28 | –
30 | EQQQSFMPK | 5260 | 11.3 | 2120 | 131 | 5.47 | –
31 | SMDVLAEKKY | 17100 | ≥ 10000 | ≥ 28500 | 2640 | ≥ 29.3 | –
32 | TLQGPPGTGK | – | – | – | – | – | Kd (HLA-A*31:01; [3]): 3290 nM; Kd (HLA-A*11:01; [3]): 264 nM; Kd (HLA-A*03:01; [3]): 282 nM; Kd (HLA-A*68:01; [3]): 225 nM; Kd (HLA-A*33:01; [3]): 8.19 µM
33 | NMRDLIVTFR | 1.14 | 14800 | 10500 | 11.5 | 0.000566 | –
34 | TSMMVILPDK | 455 | 1.8 | 141 | 27 | ≥ 23 | –
35 | NTIVFGIYK | – | – | – | – | – | Kd (HLA-A*31:01; [8]): ≥ 33400 nM; Kd (HLA-A*11:01; [8]): 1080 nM; Kd (HLA-A*03:01; [8]): ≥ 28900 nM; Kd (HLA-A*68:01; [8]): 1110 nM; Kd (HLA-A*33:01; [8]): ≥ 77.7 µM
36 | SQIFNIISY | 915 | 53.5 | 675 | 158 | 0.996 | –
37 | TIAGGVCYY | 16200 | 94.7 | 110 | 605 | ≥ 51 | –
38 | KSDNIINIGY | 3870 | 142 | 106 | 2930 | ≥ 48.6 | –
